From patent US20140178935A1 (AVEO PHARMACEUTICALS, published 2014)
Where a chain is given by its changes, count along the chain named. Blank lines part the entries; values can stand above or below the binder they belong to.

What was measured:
[1] = target: T1, recombinant human HGF (R&D Systems, Catalog No. 294-HGN-025) (human, UniProt P14210 32-728); assay: SPR (BIAcore T100), antibody captured on mouse anti-human immunoglobulin CM4 chip, HGF 1.88, 3.75 and 7.5 nM injected, 25 C
T1 construct: Mature HGF is a disulfide-linked heterodimer of alpha and beta chain cut from one precursor; also called rhHGF (R&D Systems); rhHGF
T1 sequence (P14210 32-728 limits assumed): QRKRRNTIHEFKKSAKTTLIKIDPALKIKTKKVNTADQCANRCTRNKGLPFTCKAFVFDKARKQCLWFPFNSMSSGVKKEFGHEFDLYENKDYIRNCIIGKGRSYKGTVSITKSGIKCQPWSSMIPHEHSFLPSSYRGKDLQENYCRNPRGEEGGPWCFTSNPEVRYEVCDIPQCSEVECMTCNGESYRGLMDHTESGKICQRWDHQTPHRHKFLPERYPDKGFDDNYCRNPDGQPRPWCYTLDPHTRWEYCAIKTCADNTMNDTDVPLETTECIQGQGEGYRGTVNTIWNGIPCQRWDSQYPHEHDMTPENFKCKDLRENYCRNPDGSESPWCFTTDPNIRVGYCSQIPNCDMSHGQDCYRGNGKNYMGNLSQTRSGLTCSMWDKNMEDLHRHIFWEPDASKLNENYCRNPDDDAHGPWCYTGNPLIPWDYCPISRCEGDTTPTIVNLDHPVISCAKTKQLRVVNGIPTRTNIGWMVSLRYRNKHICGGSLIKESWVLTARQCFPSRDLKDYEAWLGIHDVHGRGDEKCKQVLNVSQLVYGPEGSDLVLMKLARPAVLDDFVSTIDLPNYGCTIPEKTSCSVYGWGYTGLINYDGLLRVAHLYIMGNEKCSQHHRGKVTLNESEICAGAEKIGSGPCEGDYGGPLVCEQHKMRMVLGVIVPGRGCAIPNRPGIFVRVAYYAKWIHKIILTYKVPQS
Experimental: Antigen-binding affinity and kinetics of interaction were assessed by surface plasmon resonance technology using a BIAcore T100 instrument. Mouse anti-human immunoglobulins (Jackson ImmunoResearch Labs, 209-005-098) were immobilized on carboxymethylated dextran CM4 sensor chips (BIAcore, Catalog No. BR-1005-34) by amine coupling (BIAcore, Catalog No. BR-1000-50) using a standard coupling protocol according to manufacturer's recommendations. The analyses were performed at 25° C. using PBS (GIBCO, Catalog No. 14040-133) containing 0.05% surfactant P20 (BIAcore, Catalog No. BR-1000-54), 2 mg/mL BSA (EMD, Catalog No. 2930) and 10 mg/mL CM-Dextran Sodium salt (Fluka, Catalog No. 86524) as running buffer.
The antibodies were captured on individual flow cell at a flow rate of 10 μL/min. Injection time was variable for each antibody to yield approximately 20 RU of antibody captured for each cycle. […] The dissociation phase was monitored for 15 or 90 minutes, depending on concentration. The surface then was regenerated with 10 mM Glycine-HCl, pH 2.0 (BIAcore, Catalog No. BR-1003-55) injected for 3 minutes at a flow rate of 60 μL/min before another cycle was initiated. […] Determination of kinetic parameters was achieved using the kinetic function of the BIAevalutation software with reference subtraction.

[2] = target: T1, recombinant human HGF (R&D Systems, …); assay: SPR, antibody captured by anti-mouse Ig, HGF injected, 25 C
Experimental: Rabbit anti-mouse immunoglobulins (BIAcore, Catalog No. BR-1005-14) were immobilized on carboxymethylated dextran CM5 sensor chips (BIAcore, Catalog No. BR-1006-68) by amine coupling (BIAcore, Catalog No. BR-1000-50) using a standard coupling protocol according to manufacturer's instructions. The analyses were performed at 25° C. using PBS (GIBCO, Catalog No. 14040-133) containing 0.05% surfactant P20 (BIAcore, Catalog No. BR-1000-54), 2 mg/mL BSA (EMD, Catalog No. 2930), and 10 mg/mL CM-Dextran Sodium salt (Fluka, Catalog No. 86524) as running buffer.
The antibodies were captured in an individual flow cell at a flow rate of 10 μL/min. Injection time was variable for each antibody to yield approximately 20 RU of antibody captured for each cycle. […] The dissociation phase was monitored for 15 or 90 minutes, depending on concentration. The surface then was regenerated with 10 mM Glycine-HCl, pH 1.7 (BIAcore, Catalog No. BR-1003-54) injected for 3 minutes at a flow rate of 60 μL/min before another cycle was initiated.
Kinetic parameters were determined using the kinetic function of the BIAevalutation software with reference subtraction.

[3] = target: T1, recombinant human HGF (R&D Systems, …); assay: cell-based or functional assay
[4] = target: hHGF-Fc C561R (recombinant hHGF protein containing a cysteine to arginine substitution at position 561) (human); assay: SPR, antibody immobilized, HGF protein injected, 25 C
Sequence of hHGF-Fc C561R (recombinant hHGF protein containing a cysteine to arginine substitution at position 561) (human) (chain, as listed by the source C561R C561R limits assumed): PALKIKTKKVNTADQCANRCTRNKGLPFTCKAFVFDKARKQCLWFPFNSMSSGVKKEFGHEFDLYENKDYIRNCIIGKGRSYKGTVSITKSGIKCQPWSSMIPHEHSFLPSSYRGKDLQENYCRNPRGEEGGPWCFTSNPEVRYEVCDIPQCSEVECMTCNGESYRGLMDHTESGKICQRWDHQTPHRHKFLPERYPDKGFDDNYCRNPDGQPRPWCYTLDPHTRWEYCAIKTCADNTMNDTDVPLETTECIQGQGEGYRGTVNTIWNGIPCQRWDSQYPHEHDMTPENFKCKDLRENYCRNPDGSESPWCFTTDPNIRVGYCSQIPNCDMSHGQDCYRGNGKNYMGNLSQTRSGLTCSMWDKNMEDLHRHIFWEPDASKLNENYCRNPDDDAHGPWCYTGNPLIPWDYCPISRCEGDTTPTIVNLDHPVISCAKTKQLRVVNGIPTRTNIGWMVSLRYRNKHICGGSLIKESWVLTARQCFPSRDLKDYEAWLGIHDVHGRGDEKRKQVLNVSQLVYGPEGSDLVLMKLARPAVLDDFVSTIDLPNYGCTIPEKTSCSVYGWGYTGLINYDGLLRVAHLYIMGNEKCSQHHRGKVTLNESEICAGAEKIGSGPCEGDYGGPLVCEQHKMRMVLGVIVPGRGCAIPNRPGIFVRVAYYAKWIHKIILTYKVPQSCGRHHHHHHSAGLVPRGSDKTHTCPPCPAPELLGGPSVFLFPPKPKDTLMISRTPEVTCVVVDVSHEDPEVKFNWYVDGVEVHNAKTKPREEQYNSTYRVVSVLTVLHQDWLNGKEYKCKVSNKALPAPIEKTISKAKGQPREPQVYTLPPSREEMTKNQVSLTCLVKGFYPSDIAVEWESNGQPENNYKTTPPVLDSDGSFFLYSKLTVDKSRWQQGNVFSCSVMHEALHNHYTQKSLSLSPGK
Experimental: (§1) Each antibody was immobilized on a carboxymethylated dextran CM5 sensor chip (BIAcore, Catalog No. BR-1006-68) by amine coupling (BIAcore, Catalog No. BR-1000-50) using a standard coupling protocol according to manufacturer's instructions.
(§2) Analyses were performed at 25° C. using PBS (GIBCO, Catalog No. 14040-133) containing 0.05% surfactant P20 (BIAcore, Catalog No. R-1000-54), 2 mg/mL BSA (EMD, Catalog No. 2930) and 10 mg/mL CM-Dextran Sodium salt (Fluka, Catalog No. 86524) as running buffer. […] The resulting binding was determined as resonance units (RU) over baseline 30 seconds after the end of injection. […] Non-specific binding was monitored by comparing binding to a control surface where mouse IgG (Rockland, Catalog No. 010-0102) was immobilized using the same amine coupling procedure.

[5] = target: hHGF-Fc G555E (recombinant hHGF protein containing a glycine to glutamate substitution at position 555) (human); assay: as above
Sequence of hHGF-Fc G555E (recombinant hHGF protein containing a glycine to glutamate substitution at position 555) (human) (chain, as listed by the source G555E G555E limits assumed): as the sequence (chain, as listed by the source C561R C561R limits assumed) above, with G501E, R507C counted along it
Experimental: as §1, §2

[6] = target: T2, recombinant mouse HGF (R&D Systems) (mouse, UniProt Q08048 33-728); assay: as above
T2 construct: Bought protein, construct not described; also called rmHGF (R&D Systems); murine HGF
T2 sequence (Q08048 33-728 limits assumed): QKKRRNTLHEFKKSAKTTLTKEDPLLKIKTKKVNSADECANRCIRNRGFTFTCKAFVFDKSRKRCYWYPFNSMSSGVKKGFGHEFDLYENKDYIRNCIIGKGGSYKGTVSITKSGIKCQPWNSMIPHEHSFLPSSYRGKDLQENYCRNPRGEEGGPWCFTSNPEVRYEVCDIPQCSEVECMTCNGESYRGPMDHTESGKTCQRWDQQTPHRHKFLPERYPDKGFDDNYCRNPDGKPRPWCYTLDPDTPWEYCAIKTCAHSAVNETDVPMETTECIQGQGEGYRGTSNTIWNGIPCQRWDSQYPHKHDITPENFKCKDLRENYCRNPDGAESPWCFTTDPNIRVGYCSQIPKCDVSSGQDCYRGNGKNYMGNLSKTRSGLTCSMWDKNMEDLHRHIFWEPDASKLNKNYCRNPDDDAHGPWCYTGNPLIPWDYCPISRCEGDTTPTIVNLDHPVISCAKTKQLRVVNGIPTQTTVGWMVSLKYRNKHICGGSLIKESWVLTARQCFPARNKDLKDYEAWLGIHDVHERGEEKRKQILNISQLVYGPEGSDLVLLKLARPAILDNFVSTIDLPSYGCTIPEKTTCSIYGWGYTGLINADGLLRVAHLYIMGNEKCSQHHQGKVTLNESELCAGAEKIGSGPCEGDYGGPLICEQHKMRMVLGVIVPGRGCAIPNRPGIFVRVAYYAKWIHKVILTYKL
Experimental: as §1, §2

[7] = target: T1, recombinant human HGF (R&D Systems, …); assay: competition ELISA (DELFIA): antibody inhibits c-Met binding to plate-coated HGF
Experimental: The plates then were blocked with 200 μL of 5% non-fat dry milk in PBS for 1 hour at room temperature. […] 100 μL of sample per well was transferred to the assay plate and incubated overnight at 4° C.
The resulting plates then were washed three times with PBS-0.1% Tween 20, and incubated for 1 hour at room temperature with Eu-labeled Streptavidin (Wallac, Catalog No. 1244-360) diluted 1:1000 in DELFIA assay buffer (Wallac, Catalog No. 4002-0010). The resulting plates were washed 3 times with DELFIA wash solution (Wallac, Catalog No. 4010-0010) and incubated with 100 μL/well DELFIA enhancement solution (Wallac #4001-0010) for 15 minutes at room temperature with agitation.
The plates were read on Victor³V instrument (Perkin Elmer) using the Europium method.

[8] = target: T1, recombinant human HGF (R&D Systems, …); assay: cell-based or functional assay; remark: listed apart in the source

B1: Kappa Chimeric 2B8 / Heavy Hu2B8_Hv1-f.1 (antibody, human IgG1, kappa, V domains shown)
VH: EVQLVQSGAEVKKPGATVKISCKVSGYTFTTYWMHWVQQAPGKGLEWMGEINPTNGHTNYNEKFQGRVTITADTSTDTAYMELSSLRSEDTAVYYCATNYVGSIFDYWGQGTLVTVSS
VL: NIVMTQSPKSMSMSVGERVTLSCKASENVVSYVSWYQQKPAQSPKLLIYGASNRNTGVPDRFTGSGSATDFTLTISSVRAEDLADYHCGQSYNYPYTFGGGTRLEIKR
notes: also called Hu2B8 Hv1-f.1 + IgG1 Constant heavy chain with Chimeric 2B8 Kappa light chain
koff [1]: 0.0016 s⁻¹ | kon [1]: 2.4e+06 M⁻¹ s⁻¹

B6: Kappa Hu2B8_Kv3-15.1 / Heavy Chimeric 2B8 (antibody, human IgG1, kappa, V domains shown)
VH: QVQLQQPGAELVKPGTSVKLSCKASGYTFTTYWMHWVNQRPGQGLEWIGEINPTNGHTNYNEKFKSKATLTVDKSSSTAYMQLSSLTSEDSAVYYCARNYVGSIFDYWGQGTTLTVSS
VL: EIVMTQSPATLSVSPGERATLSCKASENVVSYVSWYQQKPGQAPRLLIYGASNRNTGIPARFSGSGSGTEFTLTISSLQSEDFAVYYCGQSYNYPYTFGQGTKLEIKR
notes: also called Chimeric 2B8 IgG1 heavy chain with Hu2B8 Kv3-15.1 + Kappa Constant light chain
koff [1]: 1.7e-05 s⁻¹ | kon [1]: 3.1e+06 M⁻¹ s⁻¹

B7: Kappa Hu2B8_Kv1-39.1 / Heavy Hu2B8_Hv5-a.1 (antibody, human IgG1, kappa, V domains shown)
VH: EVQLVQSGAEVKKPGESLRISCKGSGYSFTTYWMHWVRQMPGKGLEWMGEINPTNGHTNYNPSFQGHVTISADKSISTAYLQWSSLKASDTAMYYCARNYVGSIFDYWGQGTLVTVSS
VL: DIQMTQSPSSLSASVGDRVTITCKASENVVSYVSWYQQKPGKAPKLLIYGASNRNTGVPSRFSGSGSGTDFTLTISSLQPEDFATYYCGQSYNYPYTFGQGTKLEIKR
notes: also called Hu2B8 Hv5-a.1 + IgG1 Constant heavy chain with Hu2B8 Kv1-39.1 + Kappa Constant light chain
koff [1]: 3.8e-05 s⁻¹ | kon [1]: 2.6e+06 M⁻¹ s⁻¹

B8: Kappa Chimeric 2B8 / Heavy Hu2B8_Hv5-a.1 (antibody, human IgG1, kappa, V domains shown)
VH: B7 VH
VL: B1 VL
notes: also called Hu2B8 Hv5-a.1 + IgG1 Constant heavy chain with Chimeric 2B8 Kappa light chain
koff [1]: 1.1e-05 s⁻¹ | kon [1]: 2.4e+06 M⁻¹ s⁻¹

B9: Kappa Hu2B8_Kv1-39.1 / Heavy Hu2B8_Hv1-f.1 (antibody, human IgG1, kappa, V domains shown)
VH: B1 VH
VL: B7 VL
notes: also called Hu2B8 Hv1-f.1 + IgG1 Constant heavy chain with Hu2B8 Kv1-39.1 + Kappa Constant light chain
koff [1]: 0.0021 s⁻¹ | kon [1]: 7.1e+06 M⁻¹ s⁻¹

B10: Kappa Hu2B8_Kv1-39.1 / Heavy Chimeric 2B8 (antibody, human IgG1, kappa, V domains shown)
VH: B6 VH
VL: B7 VL
notes: also called Chimeric 2B8 IgG1 heavy chain with Hu2B8 Kv1-39.1 + Kappa Constant light chain
koff [1]: 3.9e-05 s⁻¹ | kon [1]: 2.8e+06 M⁻¹ s⁻¹

Second part, the binder after the results:

koff [1]: 0.0037 s⁻¹ | kon [1]: 7.8e+06 M⁻¹ s⁻¹
B2: Kappa Hu2B8_Kv3-15.1 / Heavy Hu2B8_Hv1-f.1 (antibody, human IgG1, kappa, V domains shown)
VH: B1 VH
VL: B6 VL
notes: also called Hu2B8 Hv1-f.1 + IgG1 Constant heavy chain with Hu2B8 Kv3-15.1 + Kappa Constant light chain

Kd [2]: 0.0542 nM | koff [2]: 8.2e-05 s⁻¹ | kon [2]: 1.7e+06 M⁻¹ s⁻¹ | EC50, inhibition of HGF-stimulated c-Met phosphorylation in PC-3 cells, Average of Two Trials [3]: 0.984 nM | binding result [4]: binds | binding result [5]: binds | binding result [6]: no binding | IC50 [7]: 4.43 nM | IC50, neutralization of HGF stimulated BrdU incorporation in 4 MBr-5 cells [8]: 4.99 nM
B3: anti-hHGF monoclonal antibody 1D3 (antibody, mouse IgG1, kappa, V domains shown)
VH: EVQLVESGGGLVQPGGSLKLSCAASGFTFSDYYMSWVRQTPEKRLEWVAYISSGGGSTYYPDSVKGRFTISRDNAKNTLYLQMSSLKSEDTAIYYCVRQGDGYYGDYAMDYWGQGTSVIVSS
VL: DIQMTQSPASLSVSVGETVTITCRTSENIYSNLAWYQQKQGKSPQLLIYAATNLADGVPSRFSGSGSGTQFSLRINSLQSEDFGRYYCQHFWGTPYTFGGGTKLEIKR
notes: Murine IgG1 kappa from hybridoma

Kd [2]: 0.0181 nM | koff [2]: 2.6e-05 s⁻¹ | kon [2]: 1.5e+06 M⁻¹ s⁻¹ | EC50, inhibition of HGF-stimulated c-Met phosphorylation in PC-3 cells, Average of Two Trials [3]: 1.19 nM | binding result [4]: binds | binding result [5]: binds | binding result [6]: binds | IC50 [7]: 6.57 nM | IC50, neutralization of HGF stimulated BrdU incorporation in 4 MBr-5 cells [8]: 1.94 nM
B4: anti-hHGF monoclonal antibody 1F3 (antibody, mouse IgG1, kappa, V domains shown)
VH: B3 VH with P14S, D31N, Y33F, I93M, I119T
VL: B3 VL with T25A, I48V, A50D, N53H, A55P, R74K, R85S, K103R
notes: as for B3

koff [1]: 2.7e-05 s⁻¹ | kon [1]: 2.3e+06 M⁻¹ s⁻¹
B5: chimeric 2B8 (mouse variable regions with human IgG1 (G1m(17,1)) and Kappa (Km(3)) constant regions) (antibody)
heavy: not shown
light: NIVMTQSPKSMSMSVGERVTLSCKASENVVSYVSWYQQKPAQSPKLLIYGASNRNTGVPDRFTGSGSATDFTLTISSVRAEDLADYHCGQSYNYPYTFGGGTRLEIKRTVAAPSVFIFPPSDEQLKSGTASVVCLLNNFYPREAKVQWKVDNALQSGNSQESVTEQDSKDSTYSLSSTLTLSKADYEKHKVYACEVTHQGLSSPVTKSFNRGEC
notes: also called Chimeric 2B8 IgG1; Chimeric 2B8 Kappa (Km(3))

koff [1]: 5.9e-05 s⁻¹ | kon [1]: 2.2e+06 M⁻¹ s⁻¹
B11: Kappa Hu2B8_Kv3-15.1 / Heavy Hu2B8_Hv5-a.1 (antibody, human IgG1, kappa, V domains shown)
VH: B7 VH
VL: B6 VL
notes: also called Hu2B8 Hv5-a.1 + IgG1 Constant heavy chain with Hu2B8 Kv3-15.1 + Kappa Constant light chain
